Measured values reported in patent US12246066 (AGENUS, dated 2025).

Molecular target: T1, human CTLA-4 on Jurkat cells engineered to constitutively express human CTLA-4 (Promega) (human, UniProt P16410 36-223)
T1 construct: Bought cell line; also called CTLA-4-expressing cells; cells expressing human CTLA-4
Assay: flow cytometry, 2 µg/ml antibody on Jurkat cells expressing human CTLA-4
Method: Jurkat cells engineered to constitutively express human CTLA-4 (Promega) were used to analyze the binding of anti-CTLA-4 antibodies. Briefly, the cells were stained at 5 ×10^5 cells/well using 2 µg/ml of antibody in a 96-well plate for 30 minutes at 4° C. The cells were washed twice and incubated for 20 minutes at 4° C. with an anti-human IgG secondary antibody (Thermo Scientific, Cat #31529). The cells were washed and suspended in […] of 2% paraformaldehyde (Alfa Aesar, Cat #43368) prepared in PBS. Data were collected with BD FACS Canto II.

| Binder | binding result |
| --- | --- |
| AGEN1884.H1.1 (IgG1) (antibody, V domains shown) VH: EVQLVESGGGLVKPGGSLRLSCAASGFTFSSYSMNWVRQAPGKGLEWVSSISSSSSYIYYADSVKGRFTISRDNAKNSLYLQMNSLRAEDTAVYYCARVGLFGPFDIWGQGTMVTVSS VL: EIVLTQSPGTLSLSPGERATLSCRASQSVSRYLGWYQQKPGQAPRLLIYGASTRATGIPDRFSGSGSGTDFTLTITRLEPEDFAVYYCQQYGSSPWTFGQGTKVEIK | binds |
| AGEN1884.H1.2 (IgG1) (antibody, V domains shown) VH: EVQLVESGGGLVKPGGSLRLSCAASGFTFSSYSMNWVRQAPGKGLEWVSSISSSSSYIYYADSVKGRFTISRDNAKNSLYLQMNSLRAEDTAVYYCARVGLMGPFDIWGQGTLVTVSS VL: EIVLTQSPGTLSLSPGERATLSCRASQSVSRYLGWYQQKPGQAPRLLIYGASTRATGIPDRFSGSGSGTDFTLTITRLEPEDFAVYYCQQYGSSPWTFGQGTKVEIK | binds |
| AGEN1884.H1.3 (IgG1) (antibody, V domains shown) VH: EVQLVESGGGLVKPGGSLRLSCAASGFTFSSYSMNWVRQAPGKGLEWVSSISSSSSYIYYAESVKGRFTISRDNAKNSLYLQMNSLRAEDTAVYYCARVGLMGPFDIWGQGTMVTVSS VL: EIVLTQSPGTLSLSPGERATLSCRASQSVSRYLGWYQQKPGQAPRLLIYGASTRATGIPDRFSGSGSGTDFTLTITRLEPEDFAVYYCQQYGSSPWTFGQGTKVEIK | binds |
| AGEN1884.H2.1 (IgG1) (antibody, V domains shown) VH: EVQLVESGGGLVKPGGSLRLSCAASGFTFSSYSMNWVRQAPGKGLEWVSSISSSSSYIYYADSVKGRFTISRDNAKNSLYLQMNSLRAEDTAVYYCARVGLFGPFDIWGQGTLVTVSS VL: EIVLTQSPGTLSLSPGERATLSCRASQSVSRYLGWYQQKPGQAPRLLIYGASTRATGIPDRFSGSGSGTDFTLTITRLEPEDFAVYYCQQYGSSPWTFGQGTKVEIK | binds |
| AGEN1884.H2.2 (IgG1) (antibody, V domains shown) VH: EVQLVESGGGLVKPGGSLRLSCAASGFTFSSYSMNWVRQAPGKGLEWVSSISSSSSYIYYAESVKGRFTISRDNAKNSLYLQMNSLRAEDTAVYYCARVGLFGPFDIWGQGTMVTVSS VL: EIVLTQSPGTLSLSPGERATLSCRASQSVSRYLGWYQQKPGQAPRLLIYGASTRATGIPDRFSGSGSGTDFTLTITRLEPEDFAVYYCQQYGSSPWTFGQGTKVEIK | binds |
| AGEN1884.H2.3 (IgG1) (antibody, V domains shown) VH: EVQLVESGGGLVKPGGSLRLSCAASGFTFSSYSMNWVRQAPGKGLEWVSSISSSSSYIYYAESVKGRFTISRDNAKNSLYLQMNSLRAEDTAVYYCARVGLMGPFDIWGQGTLVTVSS VL: EIVLTQSPGTLSLSPGERATLSCRASQSVSRYLGWYQQKPGQAPRLLIYGASTRATGIPDRFSGSGSGTDFTLTITRLEPEDFAVYYCQQYGSSPWTFGQGTKVEIK | binds |

Molecular target: T1, human CTLA-4 on Jurkat cells engineered …
Assay: flow cytometry, 5 µg/ml antibody on Jurkat cells expressing human CTLA-4
Method: The binding of anti-CTLA-4 antibodies AGEN1884.H3 (IgG_1 S239D/I332E), AGEN1884.H3 (IgG_1 S239D/A330L/I332E), and AGEN1884.H3 (IgG_1L235V/F243L/R292P/Y300L/P396L) to CTLA-4-expressing cells was characterized similarly as described above. Briefly, Jurkat cells engineered to express human CTLA-4 (Promega) were stained first with 5 μg/ml of an anti-CTLA-4 antibody or an isotype control antibody and then with an anti-human IgG secondary antibody (Thermo Scientific, Cat #31529). The cells were analyzed using BD FACS Canto II.

| Binder | binding result |
| --- | --- |
| AGEN1884.H3 (IgG1 L235V/F243L/R292P/Y300L/P396L) (antibody) heavy: EVQLVESGGGLVKPGGSLRLSCAASGFTFSSYSMNWVRQAPGKGLEWVSSISSSSSYIYYAESVKGRFTISRDNAKNSLYLQMNSLRAEDTAVYYCARVGLFGPFDIWGQGTLVTVSSASTKGPSVFPLAPSSKSTSGGTAALGCLVKDYFPEPVTVSWNSGALTSGVHTFPAVLQSSGLYSLSSVVTVPSSSLGTQTYICNVNHKPSNTKVDKRVEPKSCDKTHTCPPCPAPELVGGPSVFLLPPKPKDTLMISRTPEVTCVVVDVSHEDPEVKFNWYVDGVEVHNAKTKPPEEQYNSTLRVVSVLTVLHQDWLNGKEYKCKVSNKALPAPIEKTISKAKGQPREPQVYTLPPSREEMTKNQVSLTCLVKGFYPSDIAVEWESNGQPENNYKTTPLVLDSDGSFFLYSKLTVDKSRWQQGNVFSCSVMHEALHNHYTQKSLSLSPG light: not shown | binds |
| AGEN1884.H3 (IgG1 S239D/A330L/I332E) (antibody, Section 7.2.2 prints 'A330E'; also called AGEN1884.H3 (IgG1-S239D/A330E/I332E) as printed in section 7.2.2) heavy: EVQLVESGGGLVKPGGSLRLSCAASGFTFSSYSMNWVRQAPGKGLEWVSSISSSSSYIYYAESVKGRFTISRDNAKNSLYLQMNSLRAEDTAVYYCARVGLFGPFDIWGQGTLVTVSSASTKGPSVFPLAPSSKSTSGGTAALGCLVKDYFPEPVTVSWNSGALTSGVHTFPAVLQSSGLYSLSSVVTVPSSSLGTQTYICNVNHKPSNTKVDKRVEPKSCDKTHTCPPCPAPELLGGPDVFLFPPKPKDTLMISRTPEVTCVVVDVSHEDPEVKFNWYVDGVEVHNAKTKPREEQYNSTYRVVSVLTVLHQDWLNGKEYKCKVSNKALPLPEEKTISKAKGQPREPQVYTLPPSREEMTKNQVSLTCLVKGFYPSDIAVEWESNGQPENNYKTTPPVLDSDGSFFLYSKLTVDKSRWQQGNVFSCSVMHEALHNHYTQKSLSLSPG light: not shown | binds |
